Legend:
Assay type in all cases: biochemical
apoA-I rHDL [1] = assay: Inactivation kinetics of rePON1 192 isozymes bound to rHDL-apoA-I (EDTA/β-mercaptoethanol, residual phenyl acetate hydrolysis); conditions: apoA-I rHDL, 50-fold molar excess; EDTA and β-mercaptoethanol, 37° C.
Description: (§1) FIG. 1 is a graph showing the inactivation kinetics of the wild-type rePON1-192K (SEQ ID NO:2), -192R (SEQ ID NO:4) and -192Q (SEQ ID NO:6) isozymes, bound to rHDL-apoA-I, or in buffer. Delipidated enzymes were incubated with a 50-fold excess of rHDL-apoA-I, or in activity buffer, and subjected to inactivation in the presence of EDTA (5 mM) and β-mercaptoethanol (10 mM) at 37° C. Residual activity at various time points was determined by initial rates of phenyl acetate hydrolysis (2 mM) and plotted as percent of the activity at time zero. Data were fitted to a single exponential for wild-type rePON1-192K on rHDL-apoA-I, and to double-exponentials for the remaining samples. The inactivation rate constants and amplitudes were derived from this fit;
(§2) Inactivation rates of rePON1s were measured as described [Gaidukov, L. and D. S. Tawfik, Biochemistry, 2005. 44(35): p. 11843-54]. Briefly, rePON1 samples were delipidated using Bio-Beads SM-2 (BioRad) and incubated in buffer, or with 50-fold molar excess of rHDL-apoA-I. EDTA (10 mM) and β-mercaptoethanol (20 mM) were added, and samples were incubated at 37° C. Residual activity at different time points was determined with 2 mM phenyl acetate, and inactivation rates were fitted to either mono- or double-exponentials [Gaidukov, L. and D. S. Tawfik, Biochemistry, 2005. 44(35): p. 11843-54].
(§3) The resultant inactivation profiles of wt rePON1 (SEQ ID NO: 2), rePON1-192Q (SEQ ID NO: 6) and rePON1-192R (SEQ ID NO: 4), were fitted to exponential curves as illustrated in FIG. 1.

[2] = Inactivation kinetics of rePON1 192 isozymes in activity buffer; conditions: EDTA and β-mercaptoethanol, 37° C.
Description: as §1, §2, §3

apoA-I rHDL [3] = assay: Stimulation of enzymatic activity of rePON1 192 isozymes by rHDL-apoA-I; conditions: for Vmax (%) activation factor: relative to delipidated enzyme (100%)
Excerpt: The activity is presented in relation to the initial activity of the delipidated enzymes (percentage of stimulation). Data were fitted to the Langmuir saturation curve, from which the activation factor (Vmax) and the apparent affinity (Kapp) were derived;
Stimulated activity is presented as the percentage of the initial activity of the delipidated enzymes (corresponds to 100%). Data were fitted to the Langmuir saturation curve, from which the activation factor (Vmax) and the apparent affinity (Kapp) were derived;
Delipidated rePONs at 0.2 μM were incubated with a range of rHDL concentrations (0.1-10 μM) for 3 hrs at 37° C. Enzymatic activity was determined in activity buffer (50 mM Tris pH 8.0, 1 mM CaCl2) with substrates at 1 mM concentrations as described [Gaidukov, L. and D. S. Tawfik, Biochemistry, 2005. 44(35): p. 11843-54]. 5-(thiobutyl)-butyrolactone (TBBL) was applied at 0.25 mM, and product formation was monitored spectrophotometrically at 412 nm using 5,5′-dithio-bis-2-nitrobenzoic acid (DTNB) as described [Khersonsky, O. and D. S. Tawfik, Chembiochem, 2006. 7(1): p. 49-53].
Stimulation of the enzymatic activity was examined by incubating rePON1 isozymes with a range of rHDL concentrations (at the HDL/PON ratio of 0.5-50), and measuring the catalytic activity with various substrates as detailed hereinabove. FIGS. 3A-B illustrate the enzymatic activity of the rePON1 isozymes with δ-nonanoic lactone as substrate (FIG. 3A) and thiobutyl butiryl lactone (TBBL) as substrate (FIG. 3B). FIGS. 4A-D illustrate the enzymatic activity of the rePON1 isozymes with γ-dodecanoic lactone as substrate (FIG. 4A), δ-valerolactone as substrate (FIG. 4B), phenyl acetate as substrate (FIG. 4C) and paraoxon as substrate (FIG. 4D). Data were fitted to the Langmuir saturation curve to give the activation factor Vmax (in percent relative to the delipidated PON1) and the apparent affinity Kapp.

[4] = substrate γ-dodecanoic lactone 1 mM
[5] = substrate δ-nonanoic lactone 1 mM

B1: rePON1-192R: recombinant PON1 with arginine at position 192, generated to mimic the human R isozyme (protein)
chain: MAKLTALTLLGLGLALFDGQKSSFQTRFNVHREVTPVELPNCNLVKGVDNGSEDLEILPNGLAFISSGLKYPGIMSFDPDKSGKILLMDLNEEDPVVLELGITGNTLDISSFNPHGISTFTDEDNTVYLLVVNHPDSSSTVEVFKFQEEEKSLLHLKTIRHKLLPSVNDIVAVGPEHFYATNDHYFADPYLRSWEMHLGLAWSFVTYYSPNDVRVVAEGFDFANGINISPDGKYVYIAELLAHKIHVYEKHANWTLTPLKSLDFDTLVDNISVDPVTGDLWVGCHPNGMRIFYYDPKNPPGSEVLRIQDILSEEPKVTVVYAENGTVLQGSTVAAVYKGKLLIGTVFHKALYCEL
modifications: rePON1-192R isozyme
notes: recombinant PON1 with arginine at position 192, generated to mimic the human R isozyme
apoA-I rHDL [1]
  A2 (%) (amplitude of second, slow inactivation phase = HDL-bound fraction): 90%
  k1^inactiv (first, fast phase): 0.9 h⁻¹
  k2^inactiv (second, slow phase): 0.01 h⁻¹
[2]
  k1^inactiv (first, fast phase): 5.5 h⁻¹
  k2^inactiv (second, slow phase): 0.2 h⁻¹
apoA-I rHDL [3]; all the substrates tested
  reduction of Vmax compared to wt rePON1-192K: 10-30%
apoA-I rHDL [3]; substrate TBBL 0.25 mM
  Kapp (apparent affinity for HDL stimulation): 0.4 ± 0.1 µM
  Vmax (%) activation factor: 579 ± 6%
apoA-I rHDL [3]; substrate paraoxon 1 mM
  Vmax (%) activation factor: 200 ± 1%
apoA-I rHDL [3]; substrate phenyl acetate 1 mM
  Kapp (apparent affinity for HDL stimulation): 0.8 ± 0.1 µM
  Vmax (%) activation factor: 336 ± 4%
apoA-I rHDL [3]; [4]
  Kapp (apparent affinity for HDL stimulation): 0.9 ± 0.1 µM
  Vmax (%) activation factor: 1258 ± 21%
apoA-I rHDL [3]; [5]
  Kapp (apparent affinity for HDL stimulation): 1.5 ± 0.1 µM
  Vmax (%) activation factor: 1351 ± 20%
apoA-I rHDL [3]; substrate δ-valerolactone 1 mM
  Kapp (apparent affinity for HDL stimulation): 1.1 ± 0.1 µM
  Vmax (%) activation factor: 1403 ± 13%

From patent US20100028924A1, “Method Of Diagnosing Pon1-Hdl Associated Lipid Disorders” (Rappaport Family Institute Research in the Medical Sciences, priority 2006, published 2010)
